The target in experiment [1] is T1, human PD-L1 on the cell surface (CHO-K1 cells stably expressing human PD-L1) (human, UniProt Q9NZQ7 19-290).
T1 construct: whole, on cells; Also used here for PD-L1 on the monocyte-derived dendritic cells of the MLR assay (functional rows); also called CHO-K1/PD-L1; CHOK1-PD-L1
As to the kind of experiment: FACS on CHO-K1/hPD-L1 cells. The protocol: The ability of the purified antibodies to bind to cell membrane human PD-L1 was determined by FACS analysis. CHO-K1 cells stably expressing human PD-L1 (CHO-K1/hPD-L1 cells) were resuspended in PBS containing 2% FBS (FACS buffer) and seeded at 1×10⁵ cells/well into 96-well round-bottomed plates (Corning; Cat. No. 3799). […] The assay plate was then read on a flow cytometer. The data were processed by GraphPad software, and EC50 values were calculated. The EC50 for binding activity according to this FACS analysis is the concentration at which of an antibody induces a response halfway between the baseline and maximum and reflects the binding ability of the antibody.

Experiment [2] deals with T2, cynomolgus (cyno) PD-L1/His fusion protein (cynomolgus, UniProt G7PSE7 19-239).
T2 construct: also called cynomolgus PD-L1; not shown: His tag
T2 sequence (G7PSE7 entry or part of it): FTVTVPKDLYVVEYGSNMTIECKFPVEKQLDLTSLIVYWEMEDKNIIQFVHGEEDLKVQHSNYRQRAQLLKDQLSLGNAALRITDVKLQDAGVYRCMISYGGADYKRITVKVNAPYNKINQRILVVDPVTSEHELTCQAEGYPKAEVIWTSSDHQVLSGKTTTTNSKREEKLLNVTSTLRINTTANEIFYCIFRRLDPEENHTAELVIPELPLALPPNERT
As to the kind of experiment: ELISA, coated cyno PD-L1 protein. The protocol: (§1) The ability of an antibody to bind human or cynomolgus (cyno) PD-L1 (binding activity) was determined by ELISA. ELISA plates were incubated overnight at 4° C. with 50 μl of the human or cyno PD-L1 protein described above diluted in PBS buffer, pH 7.4, at 1 μg/ml. Plates were washed four times in washing buffer (PBS containing 0.05% Tween 20) and blocked for 1 hour at 37° C. with 200 μl per well of blocking buffer (1% BSA in PBS containing 0.05% Tween 20). After blocking buffer was removed, diluted purified antibodies (200 nM and 1:5 serial dilutions to provide 7 concentrations of each antibody) were added to the wells at 100 μl per well and incubated at 37° C. for 1 hour. The wells were washed four times with washing buffer, and anti-human IgG (Fc-specific) HRP-conjugated antibody (Sigma), diluted 1:10,000, was added to the wells at 100 μl per well. The plates were incubated for 1 hour at 37° C. and washed four times in washing buffer. 100 μl of tetramethylbenzidine (TMB) chromogenic solution were added per well. Following color development, the reaction was stopped with 1 N HCl, and absorbance at 450 nm was measured on a VARIOSKAN™ LUX multimode microplate reader (ThermoFisher Scientific, Vataa, Finland). The data were processed by GraphPad software, and EC50 values were calculated. The EC50 for binding activity according to this ELSA is the concentration at which an antibody induces a response halfway between the baseline and maximum and indicates the binding ability of the antibody.
In general terms: ELISA stands for enzyme-linked immunosorbent assay.

In experiment [3] the target is T3, human PD-L1/His fusion protein (human, UniProt Q9NZQ7 19-239). As to the kind of experiment: ELISA, coated human PD-L1 protein, anti-human Fc detection. The procedure: as §1
T3 sequence (Q9NZQ7 19-239 limits assumed): as the sequence (G7PSE7 entry or part of it) above, with T33A, S34A, N62S, Q68R, R82Q, L173F, A185T, I192T, L215H counted along it
Experiment [4] addresses T3, human PD-L1/His fusion protein. As to the kind of experiment: BLI Octet RED96, antibody on AHC sensor, single conc. PD-L1/His; test group 1. The protocol:
(§2) Briefly, antibodies were characterized for affinities and binding kinetics by Octet®RED96 biolayer interferometry (Pall ForteBio LLC). Antibodies were captured by Anti-hIgG Fc Capture (AHC) Biosensors (Pall) at a concentration of 100 nM for 30 seconds. Sensors were then dipped into running buffer (1×pH 7.2 PBS, 0.05% Tween 20, 0.1% BSA) for 60 seconds to check baseline. Binding was measured by dipping sensors into a single concentration of recombinant human PD-L1/His fusion protein (Novoprotein). Dissociation was followed by dipping sensors into running buffer for 1200 seconds. The association and dissociation curves were fitted to a 1:1 Langmuir binding model using ForteBio Data Analysis software (Pall). […] The off-rate ratio serves as a data normalization. Accordingly, in each test group, the off-rate ratios of the humanized antibodies can be compared with that of the chimeric antibody, and the off-rate ratios of each of the humanized antibodies can be compared to one another within all test groups.

Experiment [5] has the same target. Briefly: BLI off-rate; test group 1 (reference itself). The protocol: as §2
Experiment [6] has the same target. Briefly: BLI off-rate; test group 4 (reference itself). The protocol:
as §2

The target is the same in experiment [7]. As to the kind of experiment: BLI off-rate; test group 2 (reference itself). The protocol:
as §2

Experiment [8] has as its target T2, cynomolgus (cyno) PD-L1/His fusion …. Briefly: BLI Octet RED96, cyno PD-L1.
Experiment [9] deals with human PD-L1/Fc Fusion Protein (human). As to the kind of experiment: RBA ELISA: coated PD-L1/Fc, competitor biotinylated human PD-1. The protocol:
ELISA plates were coated with 100 μl of 1 μg/ml of human PD-L1/Fc in PBS and incubated overnight at 4° C. Plates were washed four times in washing buffer (PBS containing 0.05% Tween 20) and blocked for 1 hour at 37° C. with 200 μl per well of blocking buffer (1% BSA in PBS containing 0.05% Tween 20). […] A human IgG was included as negative control. The signal was developed by adding streptavidin-HRP (Cat. No. S2468, Sigma) (100 μl/well at 1:5000 dilution) and incubating for 40 minutes at 37° C., followed by washing four times in washing buffer. Then, 100 μl of TMB solution were added per well. Following color development, the reaction was stopped with 1 N HCl, and absorbance at 450 nm was measured. The data were processed by GraphPad software, and IC50 values were calculated. […] The signal reduction induced by antibody samples was normalized to inhibition percentage, where the negative control was 0% inhibition, and the absolute value of signal reduction of each antibody divided by the signal of the negative control equals the percent inhibition by the antibody.

Experiment [10] concerns the target T3, human PD-L1/His fusion protein. As to the kind of experiment: BLI Octet RED96, antibody on AHC sensor, PD-L1/His in solution. The protocol:
Binding of antibodies to PD-L1 was also assessed using biolayer interferometry (BLI) using an Octet® RED96 sensor device (Pall ForteBio LLC). Antibodies were captured by anti-hIgG Fc capture (AHC) Biosensors (Pall) at a concentration of 100 nM for 30 seconds. Sensors were then dipped into running buffer (1×pH7.2 PBS, 0.05% Tween 20, 0.1% BSA) for 60 seconds to check the baseline. Binding was measured by dipping sensors into a series of diluted concentrations of recombinant human PD-L1/His fusion protein. Dissociation was followed by dipping sensors into running buffer for 1200 seconds. The association and dissociation curves were fitted to a 1:1 Langmuir binding model using ForteBio Data Analysis software (Pall). The equilibrium dissociation constant KD (molarity) of the reaction between antibodies and related target proteins was then calculated from the kinetic rate constants using the formula KD=koff/kon.
(In BLI a coated tip is dipped into the sample, and binding shifts an interference pattern.)

Experiment [11] shares this target. Briefly: BLI Octet RED96, antibody on AHC sensor, single conc. PD-L1/His; test group 2. The protocol:
as §2

Experiment [12] shares this target. As to the kind of experiment: BLI off-rate; test group 3 (reference itself). The protocol: as §2
Experiment [13] shares this target. As to the kind of experiment: BLI Octet RED96, antibody on AHC sensor, single conc. PD-L1/His; test group 3. The protocol: as §2
For experiment [14] the target is unchanged. Briefly: BLI Octet RED96, antibody on AHC sensor, single conc. PD-L1/His; test group 4. The procedure:
as §2

Chain of human PD-L1/Fc Fusion Protein (human) (chain, as listed by the source limits assumed): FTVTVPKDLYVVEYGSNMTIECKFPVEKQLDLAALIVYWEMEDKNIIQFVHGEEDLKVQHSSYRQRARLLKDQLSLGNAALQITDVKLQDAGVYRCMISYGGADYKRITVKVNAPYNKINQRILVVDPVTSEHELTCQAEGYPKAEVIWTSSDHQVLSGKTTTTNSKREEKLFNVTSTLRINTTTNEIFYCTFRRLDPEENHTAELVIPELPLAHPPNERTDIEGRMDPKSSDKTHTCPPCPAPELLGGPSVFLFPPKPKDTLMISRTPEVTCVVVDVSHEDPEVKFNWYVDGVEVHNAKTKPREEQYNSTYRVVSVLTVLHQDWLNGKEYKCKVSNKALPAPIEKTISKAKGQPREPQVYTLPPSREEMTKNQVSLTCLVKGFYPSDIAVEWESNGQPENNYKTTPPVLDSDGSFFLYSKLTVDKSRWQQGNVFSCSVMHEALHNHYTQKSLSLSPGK
T1 sequence (Q9NZQ7 19-290): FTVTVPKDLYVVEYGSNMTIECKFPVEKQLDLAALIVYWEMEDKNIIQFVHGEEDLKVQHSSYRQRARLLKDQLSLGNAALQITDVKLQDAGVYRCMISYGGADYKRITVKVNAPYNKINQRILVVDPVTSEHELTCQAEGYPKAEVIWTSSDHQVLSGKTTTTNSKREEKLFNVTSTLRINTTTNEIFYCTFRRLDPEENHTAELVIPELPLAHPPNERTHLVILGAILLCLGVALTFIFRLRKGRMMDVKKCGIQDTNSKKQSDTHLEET

B1: EM0005-mAb90c (antibody, human IgG1, kappa, V domains shown)
VH: QVQLKQSGAELVRPGSSVKMSCKTSGYTFTSHSINWVKQRPGQGLEWIGYMYIGNGYTEYNEKFKGKATLTSDTSSTTAYMQLSSLTSEDSAIYFCAKITPVVAPYVMDYWGQGTSVTVSS
VL: DIVMTQTHKFMSTSVGDRVSITCKASQDVGTAVAWYQQKPGQSPKLLIYWASTRHTGVPDRFTGSGSGTDFTLTISNVQSEDLADYFCQQYSSYPYTFGGGTKLELKR
notes: Chimeric full-length IgG1; also called EM0005-90c
On to B1, for which the EC50 in [1] was 0.21 nM; in experiment [2], 0.12 nM; in experiment [3] it was 0.15 nM. Moreover, the koff in experiment [4] is 0.000253 s⁻¹; in experiment [11] it was 0.000342 s⁻¹; in experiment [13], 0.000382 s⁻¹; in experiment [14] it was 0.00225 s⁻¹. Further, the “Off-Rate Ratio to that of EM0005-90c” value in [5], in [6], in [7] and in experiment [12] was 100% throughout. The Kd in experiment [8] came to 0.837 nM; in experiment [10], 0.681 nM. Besides, the IC50 in [9] came out at 1.05 nM. Also, the “Inhibition (percent)” value in [9] stood at 94.4%.

B2: EM0005-mAb87c (antibody, human IgG1, kappa, V domains shown)
VH: EVQLQQSGPELVKPGASVKISCKASGYSFTDYYINWVKQSPEKSLEWIGETIPNTGGTTYNQKFKAKATLTVDKSSSTAYMQLKSLTSEDSAVYYCARYQSGSPFAYWGQGTPVTVSS
VL: DIVMTQSQKFMSTTVGDRVSITCKASQNVGTAVAWYQQKPGQSPKLLIYSASNRYTGVPDRFTGSGSGTDFTLTISNMQSEDLADYFCQQHYSTPYTFGGGTKLEIKR
notes: Chimeric full-length IgG1; also called EM0005-87c
Take B2: the values for the EC50 in experiment [1], in experiment [2] and in experiment [3] were 0.42 nM, 0.06 nM and 0.08 nM, respectively. The koff is 0.00147 s⁻¹ in [4], 0.00104 s⁻¹ in experiment [11], 0.00135 s⁻¹ in experiment [13] and 0.000897 s⁻¹ in [14]. The “Off-Rate Ratio to that of EM0005-87c” value in experiment [5], in experiment [6], in experiment [7] and in experiment [12] was 100% each time. Besides, the dissociation constant (Kd) was determined as 0.493 nM in experiment [8] and 0.981 nM in [10]. Further, the 50% inhibitory concentration (IC50) in experiment [9] was determined as 0.94 nM. Moreover, in experiment [9], the “Inhibition (percent)” value was found to be 93.9%.

One may read the EC50 as the concentration at which the effect is half-maximal. Read a high EC50 as a need for much substance. Broadly, the koff is a measure of how fast the partners let go of each other. The low end stands for slow dissociation, the high end for fast dissociation. What is called Kd is the free concentration of one partner at which half of the binding sites on the other are occupied at equilibrium, for simple one-to-one binding. A higher Kd goes with a looser complex. The term IC50 denotes the point on the concentration scale where inhibition reaches its midpoint. Low values mean greater potency in that assay, high ones weaker potency in that assay.
